Experimental findings from article PMC6593972, “Two-Step Activation Mechanism of the ClpB Disaggregase for Sequential Substrate Threading by the Main ATPase Motor” (Cell Reports, 2019) are described below.

The data set deals with the molecule itself. The experiment in a line: cryo-EM structure; ClpB hexamer with a 20-fold molar excess of casein, 10 min at room temperature in 25 mM Tris-HCl pH 7.4, 25 mM KCl, 10 mM MgCl2, 2 mM ATPγS, 1 mM DTT; single-particle cryo-EM.

B1: ClpB-DWB-K476C (natural protein)
chain: not shown
notes: ClpB, bacterial disaggregase, with K476C (M-domain) and the double Walker B mutations E279A/E678A; ATPase-deficient variant used to trap substrate for cryo-EM in the presence of ATPγS; also called ClpB-K476C-DWB; ClpB-K476C/E279A/E678A; source: E. coli ΔclpB::kan cells, purified (Ni-IDA, size exclusion chromatography Superdex S200)
In the case of B1, the “stoichiometry N” value amounted to 6.
